Assay results as given in patent publication US20250019450A1 (DIAGONAL THERAPEUTICS, published 2025).

target: human IL-12 receptor (IL-12Rβ1 and IL-12Rβ2) on HEK-Blue IL-12 cells (human, UniProt P42701 24-662; Q99665 24-862); assay: cell-based or functional assay
Sequence (Q99665 24-862, chain 2 of 2, other chains not shown): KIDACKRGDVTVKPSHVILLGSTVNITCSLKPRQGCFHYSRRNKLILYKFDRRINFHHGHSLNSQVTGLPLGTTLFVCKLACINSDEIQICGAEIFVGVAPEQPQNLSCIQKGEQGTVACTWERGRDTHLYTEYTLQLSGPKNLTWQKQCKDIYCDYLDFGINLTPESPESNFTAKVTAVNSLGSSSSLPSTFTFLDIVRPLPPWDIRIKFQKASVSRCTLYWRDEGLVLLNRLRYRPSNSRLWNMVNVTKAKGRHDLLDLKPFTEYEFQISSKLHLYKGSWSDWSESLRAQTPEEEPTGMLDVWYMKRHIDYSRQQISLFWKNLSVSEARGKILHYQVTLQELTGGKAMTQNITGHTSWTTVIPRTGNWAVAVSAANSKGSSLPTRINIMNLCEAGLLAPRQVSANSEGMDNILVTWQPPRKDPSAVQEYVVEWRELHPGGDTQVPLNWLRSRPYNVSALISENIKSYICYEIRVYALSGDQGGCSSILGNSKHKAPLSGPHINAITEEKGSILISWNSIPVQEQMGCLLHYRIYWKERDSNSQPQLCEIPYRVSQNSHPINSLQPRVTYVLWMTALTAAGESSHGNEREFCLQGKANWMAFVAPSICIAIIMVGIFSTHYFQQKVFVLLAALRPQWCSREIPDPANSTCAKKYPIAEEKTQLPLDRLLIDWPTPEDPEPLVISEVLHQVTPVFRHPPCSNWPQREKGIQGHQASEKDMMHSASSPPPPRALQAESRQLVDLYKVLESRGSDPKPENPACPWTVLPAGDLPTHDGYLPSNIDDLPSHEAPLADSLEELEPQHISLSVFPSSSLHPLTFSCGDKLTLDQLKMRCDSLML

Max Absorbance	Binder
0.25	DGL453 (bispecific antibody, V domains shown) V domain 1: QVQLQESGGALVQPGGSLRLSCVVSGFTSDYFAIGWFRQAPGKEREGVSCIGSSDGSTIYSDSVKGRFTISRDNAKNTVYLQMNSLKPEDTGVYYCALDRGRRTIIGYACYATMKYWGKGTPVTVEP V domain 2: QVQLVESGGGLVQPGGSLRLSCAASGFTFSNYAMSWIRQGPERGFEWVSRINSGGGTTSYADSVKGRFTISRDNAKNTLYLQMNSLKPEDTAVYYCAKHSHPDYSSNYYRPGQGTQVTVEP
0.23	DGL604 (bispecific antibody, V domains shown) V domain 1: QVQLVESGGGLVQAGGSLRLSCAASRSISSFNEMAWYRQAPGEQRELVATIVSTVGFTNYADSVKGRFTISRDNAKNTVYLQMNSLKAEDTAVYYCNARRISTDYWGQGTQVTVEP V domain 2: QLQLVESGGGLVQAGGSLRLSCAASGRTFGIHGMGWFRQAPGKEREFAAAIRWSDGTTIHADSVKGRLTISRDNAKNTVYLQMNSLKPEDTAVYYCAATSNPQFGRNWYTVAAGVEYGYWGQGTQVTVEP

More lines, now with the values behind:

Binder	Max Absorbance
DGL427 (bispecific antibody, human IgG1, kappa) heavy 1: not shown heavy 2: EVLLVESGGGLVKPGGSLRLSCAASGFTFSSYSMNWVRQAPGKGLEWVSSISSSSDYIHYADSVRGRFTISRDNAKNSLYLQMNSLRAEDTAVYYCARSELGFDYWGQGTLVTVSSASTKGPSVFPLAPSSKSTSGGTAALGCLVKDYFPEPVTVSWNSGALTSGVHTFPAVLQSSGLYSLSSVVTVPSSSLGTQTYICNVNHKPSNTKVDKKVEPKSCDKTHTCPPCPAPEAAGAPSVFLFPPKPKDTLMISRTPEVTCVVVDVSHEDPEVKFNWYVDGVEVHNAKTKPREEQYNSTYRVVSVLTVLHQDWLNGKEYKCKVSNKALPAPIEKTISKAKGQPREPQVCTLPPSRDELTKNQVSLSCAVKGFYPSDIAVEWESNGQPENNYKTTPPVLDSDGSFFLVSKLTVDKSRWQQGNVFSCSVMHEALHNRFTQKSLSLSPG light: DIQMTQSPSSVSASVGDRVTITCRASQGISIWLAWYQQKPGKAPKPLIYAASSLQSGVPSRFSGSGSGTDFTLTISSLQPEDFATYYCQQANSFPLTFGGGTKVEIKRTVAAPSVFIFPPSDEQLKSGTASVVCLLNNFYPREAKVQWKVDNALQSGNSQESVTEQDSKDSTYSLSSTLTLSKADYEKHKVYACEVTHQGLSSPVTKSFNRGEC	0.25
DGL443 (bispecific antibody, human IgG1, lambda) heavy 1: not shown heavy 2: QVTLRESGPALVKPTQTLTLTCTFSGFSLSTSGMCVSWIRQPPGKALEWLALIYWDDDKYYSTSLKTRLTISKDTSKNQVVLTMTNMDPVDTATYYCARMRRGIEAFDIWGQGTMVTVFSASTKGPSVFPLAPSSKSTSGGTAALGCLVKDYFPEPVTVSWNSGALTSGVHTFPAVLQSSGLYSLSSVVTVPSSSLGTQTYICNVNHKPSNTKVDKKVEPKSCDKTHTCPPCPAPEAAGAPSVFLFPPKPKDTLMISRTPEVTCVVVDVSHEDPEVKFNWYVDGVEVHNAKTKPREEQYNSTYRVVSVLTVLHQDWLNGKEYKCKVSNKALPAPIEKTISKAKGQPREPQVCTLPPSRDELTKNQVSLSCAVKGFYPSDIAVEWESNGQPENNYKTTPPVLDSDGSFFLVSKLTVDKSRWQQGNVFSCSVMHEALHNRFTQKSLSLSPG light: QSVLTQPPSVSGAPGQRVTISCTGSSSNIGAGYDVHWYQQLPGTAPKLLIFGYSNRPSGVPVRFSGSKSGTSASLAITGLLAEDEADFYCQSFDISLTGWVFGGGTKLTVLGQPKAAPSVTLFPPSSEELQANKATLVCLISDFYPGAVTVAWKADSSPVKAGVETTTPSKQSNNKYAASSYLSLTPEQWKSHRSYSCQVTHEGSTVEKTVAPTECS	0.24
DGL415 (bispecific antibody, human IgG1, kappa) heavy 1: not shown heavy 2: QVQLVESGGGLVQAGGSLRLSCAASGRTFSRYRMGWFRQAPGKEREFVAAITKSGATTYDADSVKGRFTISRDNAKNTLYLQMNSLKPEDTAVYYCAASYHSNWWPKNADEYAYWGQGTQVTVEPKSSDKTHTCPPCPAPEAAGAPSVFLFPPKPKDTLMISRTPEVTCVVVDVSHEDPEVKFNWYVDGVEVHNAKTKPREEQYNSTYRVVSVLTVLHQDWLNGKEYKCKVSNKALPAPIEKTISKAKGQPREPQVCTLPPSRDELTKNQVSLSCAVKGFYPSDIAVEWESNGQPENNYKTTPPVLDSDGSFFLVSKLTVDKSRWQQGNVFSCSVMHEALHNRFTQKSLSLSPG light: not shown	0.23
